Values of other authors in US20150182494A1, “METHOD OF MANAGING DIABETIC FOOT ULCERS, PRESSURE ULCERS, VENOUS LEG ULCERS AND ASSOCIATED COMPLICATION” (INDUS BIOTECH PRIVATE LIMITED, priority 2012, published 2015).

Settings: patients treated with 3 or more tubes

For becalpermin [Regranex gel], which “Mortality secondary to malignancy, in words” value is on record?
Its value is “increased rate of mortality secondary to malignancy”.
